Measurements as given in the supplement of paper PMC9112550, “Optimization of the antimicrobial peptide Bac7 by deep mutational scanning” (BMC Biology, 2022).

test system: Escherichia coli TOP10; assay: shrunken log2 fold change of peptide-encoding DNA abundance (4.5 h post-induction vs induction); higher = less antimicrobial activity (less host growth inhibition); conditions: time post-induction: 4.5 h; library: site-saturation at positions 5, 18, 19, 20
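Further: peptides expressed intracellularly from a pBAD plasmid library in pooled LB shake-flask culture, induced with 0.3% L-arabinose, DNA abundance read by NGS, three biological replicates, DESeq2 with apeglm shrinkage.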

Point of comparison: RRIRDRPPRLPRPRPRPHYFPRP, “shrunken log2 fold change” value -0.119. Against it:
- RRIRDRPPRLPRPRPRPLKVPRP — within 0.2 log units, -0.0261
- RRIRNRPPRLPRPRPRPEERPRP — within 0.2 log units, -0.116
- RRIRGRPPRLPRPRPRPRPAPRP — higher, 1.07
- RRIRTRPPRLPRPRPRPYWGPRP — within 0.2 log units, -0.0337
- RRIRERPPRLPRPRPRPYSLPRP — within 0.2 log units, -0.0204
- RRIRQRPPRLPRPRPRPIYPPRP — within 0.2 log units, -0.121
- RRIRNRPPRLPRPRPRPHRPPRP — higher, 0.128
- RRIRDRPPRLPRPRPRPGWRPRP — higher, 0.832
- RRIRKRPPRLPRPRPRPVTLPRP — higher, 0.163
- RRIRYRPPRLPRPRPRPEQNPRP — within 0.2 log units, 0.00317
- RRIRIRPPRLPRPRPRPTKIPRP — within 0.2 log units, -0.158
- RRIRKRPPRLPRPRPRPKWTPRP — higher, 0.198
- RRIRRRPPRLPRPRPRPKWVPRP — higher, 0.242
- RRIRERPPRLPRPRPRPYGIPRP — within 0.2 log units, -0.00973
- RRIRQRPPRLPRPRPRPCLYPRP — within 0.2 log units, -0.29
- RRIRFRPPRLPRPRPRPKAMPRP — higher, 0.23
- RRIRTRPPRLPRPRPRPNPAPRP — higher, 0.147
- RRIRPRPPRLPRPRPRPSFMPRP — lower, -0.377
- RRIRHRPPRLPRPRPRPEIGPRP — higher, 0.103
- RRIRMRPPRLPRPRPRPYTHPRP — within 0.2 log units, -0.174
- RRIRFRPPRLPRPRPRPLHQPRP — lower, -0.37
- RRIRRRPPRLPRPRPRPDLGPRP — higher, 0.104
- RRIRARPPRLPRPRPRPRWPPRP — higher, 0.666
- RRIRHRPPRLPRPRPRPYNRPRP — within 0.2 log units, -0.0244
- RRIRERPPRLPRPRPRPLYKPRP — lower, -0.769
- RRIRVRPPRLPRPRPRPYWSPRP — within 0.2 log units, 0.000469
- RRIRPRPPRLPRPRPRPCGTPRP — higher, 0.155
- RRIRCRPPRLPRPRPRPVCDPRP — within 0.2 log units, -0.245
- RRIRPRPPRLPRPRPRPSPYPRP — lower, -0.461
- RRIRRRPPRLPRPRPRPWILPRP — within 0.2 log units, -0.0248
- RRIRVRPPRLPRPRPRPKFNPRP — lower, -0.42
- RRIRQRPPRLPRPRPRPIAGPRP — higher, 0.139
- RRIRYRPPRLPRPRPRPHHMPRP — within 0.2 log units, -0.311
- RRIRARPPRLPRPRPRPFVHPRP — within 0.2 log units, -0.207
- RRIRYRPPRLPRPRPRPHWNPRP — lower, -0.799
- RRIRKRPPRLPRPRPRPHEVPRP — within 0.2 log units, -0.00968
- RRIRWRPPRLPRPRPRPCTPPRP — within 0.2 log units, -0.0412
- RRIRFRPPRLPRPRPRPTHFPRP — within 0.2 log units, -0.227
- RRIRFRPPRLPRPRPRPFLSPRP — within 0.2 log units, -0.167
- RRIRPRPPRLPRPRPRPKSRPRP — higher, 0.154
- RRIRDRPPRLPRPRPRPPIGPRP — higher, 0.849
- RRIRFRPPRLPRPRPRPHTPPRP — higher, 1.24
- RRIRYRPPRLPRPRPRPRGAPRP — higher, 1.34
- RRIRMRPPRLPRPRPRPRDQPRP — higher, 0.776
- RRIRTRPPRLPRPRPRPKQPPRP — within 0.2 log units, 0.0517
- RRIRYRPPRLPRPRPRPSHYPRP — lower, -0.966
- RRIRWRPPRLPRPRPRPINAPRP — higher, 0.252
- RRIRPRPPRLPRPRPRPHKMPRP — lower, -0.403
- RRIRFRPPRLPRPRPRPVTRPRP — within 0.2 log units, -0.0263
- RRIRARPPRLPRPRPRPSMTPRP — higher, 0.2
- RRIRWRPPRLPRPRPRPRCWPRP — higher, 0.616
- RRIRDRPPRLPRPRPRPGQIPRP — within 0.2 log units, 0.0221
- RRIRLRPPRLPRPRPRPVYHPRP — lower, -0.856
- RRIRNRPPRLPRPRPRPRPQPRP — higher, 0.339
- RRIRPRPPRLPRPRPRPWQMPRP — within 0.2 log units, 0.0571
- RRIRQRPPRLPRPRPRPMQEPRP — within 0.2 log units, 0.0325
- RRIRMRPPRLPRPRPRPEIQPRP — within 0.2 log units, 0.0386
- RRIRIRPPRLPRPRPRPECKPRP — within 0.2 log units, -0.259
- RRIRERPPRLPRPRPRPPFPPRP — within 0.2 log units, 0.018
- RRIRKRPPRLPRPRPRPITEPRP — within 0.2 log units, -0.147
- RRIRVRPPRLPRPRPRPHTWPRP — lower, -0.351
- RRIRMRPPRLPRPRPRPFNLPRP — within 0.2 log units, -0.16
- RRIRGRPPRLPRPRPRPGWKPRP — within 0.2 log units, 0.0657
- RRIRGRPPRLPRPRPRPKIMPRP — higher, 0.322
- RRIRVRPPRLPRPRPRPIAGPRP — within 0.2 log units, 0.0142
- RRIRVRPPRLPRPRPRPCITPRP — within 0.2 log units, -0.233
- RRIRYRPPRLPRPRPRPQGGPRP — within 0.2 log units, 0.0299
- RRIRMRPPRLPRPRPRPWMDPRP — within 0.2 log units, -0.0276
- RRIRIRPPRLPRPRPRPHIVPRP — within 0.2 log units, -0.0875
- RRIRTRPPRLPRPRPRPVTVPRP — within 0.2 log units, 0.0698
- RRIRKRPPRLPRPRPRPASGPRP — higher, 0.591
- RRIRLRPPRLPRPRPRPWLSPRP — within 0.2 log units, -0.0106
- RRIRNRPPRLPRPRPRPNTRPRP — within 0.2 log units, -0.115
- RRIRRRPPRLPRPRPRPTFDPRP — higher, 0.425
- RRIRMRPPRLPRPRPRPEKVPRP — higher, 1.45
- RRIRRRPPRLPRPRPRPYGDPRP — within 0.2 log units, -0.251
- RRIRHRPPRLPRPRPRPIEFPRP — within 0.2 log units, -0.19
- RRIRTRPPRLPRPRPRPTHKPRP — within 0.2 log units, -0.0156
- RRIRLRPPRLPRPRPRPYHEPRP — lower, -1.6
- RRIRNRPPRLPRPRPRPPSFPRP — within 0.2 log units, -0.0746
- RRIRPRPPRLPRPRPRPVMLPRP — within 0.2 log units, -0.0771
- RRIRVRPPRLPRPRPRPTDDPRP — within 0.2 log units, -0.183
- RRIRPRPPRLPRPRPRPKWSPRP — within 0.2 log units, -0.113
- RRIRYRPPRLPRPRPRPRRHPRP — within 0.2 log units, -0.103
- RRIRGRPPRLPRPRPRPDQSPRP — higher, 0.777
- RRIRSRPPRLPRPRPRPWYFPRP — lower, -0.85
- RRIRYRPPRLPRPRPRPESKPRP — lower, -0.859
- RRIRTRPPRLPRPRPRPRRRPRP — higher, 0.411
- RRIRMRPPRLPRPRPRPVIDPRP — within 0.2 log units, 0.0403
- RRIRVRPPRLPRPRPRPMSLPRP — within 0.2 log units, 0.0447
- RRIRKRPPRLPRPRPRPMCYPRP — within 0.2 log units, -0.00324
- RRIRKRPPRLPRPRPRPLRWPRP — higher, 1.37
- RRIRIRPPRLPRPRPRPRWDPRP — within 0.2 log units, -0.12
- RRIRVRPPRLPRPRPRPTRHPRP — higher, 0.156
- RRIRLRPPRLPRPRPRPYKAPRP — within 0.2 log units, -0.112
- RRIRWRPPRLPRPRPRPCMNPRP — higher, 0.297
- RRIRIRPPRLPRPRPRPSPPPRP — within 0.2 log units, -0.214
- RRIRERPPRLPRPRPRPGGDPRP — within 0.2 log units, 0.0586
- RRIRKRPPRLPRPRPRPKLTPRP — higher, 0.104
- RRIRPRPPRLPRPRPRPGWKPRP — higher, 0.269
- RRIRMRPPRLPRPRPRPSGRPRP — higher, 0.556
- RRIRLRPPRLPRPRPRPKQPPRP — higher, 0.119
- RRIRYRPPRLPRPRPRPTKIPRP — lower, -0.373
- RRIRCRPPRLPRPRPRPEGTPRP — higher, 0.137
- RRIRYRPPRLPRPRPRPMHTPRP — within 0.2 log units, -0.254
- RRIRARPPRLPRPRPRPYSGPRP — within 0.2 log units, -0.0581
- RRIRWRPPRLPRPRPRPWATPRP — higher, 0.168
- RRIRVRPPRLPRPRPRPKAYPRP — within 0.2 log units, 0.0199
